Usually Kd stands for the free concentration of one partner at which half of the binding sites on the other are occupied at equilibrium, for simple one-to-one binding. Usually koff stands for a measure of how fast the partners let go of each other. Low readings indicate a long-lived complex, high ones a short-lived complex. The kon is the rate constant with which the complex forms. The EC50 is the concentration that produces a half-maximal response. By EC50 (read off the curve) is commonly meant the concentration at which the effect is half-maximal.

Assay [1] concerns the target T1, Human OX40 (R&D systems, #3358_OX) (human, UniProt P43489 29-216).
T1 construct: Bought; Several catalogue numbers are given for it; also called human OX40 (R&D Systems, 3388-OX); OX40-Fc (R&D systems, #3358_OX); not shown: Fc part
T1 sequence: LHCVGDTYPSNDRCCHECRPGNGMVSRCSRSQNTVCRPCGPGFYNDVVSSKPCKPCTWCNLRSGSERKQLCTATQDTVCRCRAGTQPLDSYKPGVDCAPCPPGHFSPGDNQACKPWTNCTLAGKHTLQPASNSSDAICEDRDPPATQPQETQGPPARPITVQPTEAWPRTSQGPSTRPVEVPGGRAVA
The assay can be described thus: SPR (Biacore), immobilised human OX40. On the procedure: Human OX40 (R&D systems, #3358_OX) was immobilized to the Biacore™ sensor chip, CM5, using conventional amine coupling. The tested antibodies and controls (serially diluted ⅓ or ½ 100-2 nM) were analyzed for binding in HBS-P (GE, #BR-1003-68) at a flow rate of […]. The association was followed for 3 minutes and the dissociation for 20 minutes. Regeneration was performed twice using 50 mM NaOH for 60 seconds. The kinetic parameters and the affinity constants were calculated using 1:1 Langmuir model with drifting baseline. […] The kinetic parameters and the affinity constants were calculated using BIAevaluation 4.1 software.
For orientation: In SPR one partner is held on a chip, and binding of the other changes the refractive index at the surface.

The target in assay [2] is T2, extracellular part of human OX40 fused to the transmembrane and intracellular part of hCD40, on CHO cells (human, UniProt P25942 194-277, limits assumed).
T2 construct: domain: transmembrane and intracellular part; also called hOX40 overexpressed on CHO cells; huOX40 (CHO)
T2 sequence: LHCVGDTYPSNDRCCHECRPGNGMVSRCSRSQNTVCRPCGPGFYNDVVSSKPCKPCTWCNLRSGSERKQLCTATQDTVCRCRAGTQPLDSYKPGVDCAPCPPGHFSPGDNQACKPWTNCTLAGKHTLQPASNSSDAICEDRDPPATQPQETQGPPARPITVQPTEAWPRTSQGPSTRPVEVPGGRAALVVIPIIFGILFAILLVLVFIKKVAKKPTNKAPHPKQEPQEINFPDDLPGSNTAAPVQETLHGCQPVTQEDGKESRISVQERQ
As to the kind of experiment: flow cytometry, cells with human OX40; 95% confidence interval. The method, then:
(§1) For the assay, the transfected cells were incubated with the test antibodies and controls for 30 min at 4° C. and then detected with a-huIgG-PE (Jackson Immunoresearch) 30 min 4° C. Cells were analyzed by flow cytometry with FACS Verse (BD Biosciences).
(Flow cytometry measures light scatter and fluorescence of single cells or particles in a stream.)

The target in another assay is T3, CD40 (Ancell) (UniProt P25942 21-193).
T3 construct: also called CD40-Fc (Ancell #504-820); not shown: Fc part, not described
As to the kind of experiment: ELISA. Background: ELISA stands for enzyme-linked immunosorbent assay.

A further assay has as its target T4, murine OX40 (murine, UniProt P47741 20-211, limits assumed).
T4 sequence (looked up): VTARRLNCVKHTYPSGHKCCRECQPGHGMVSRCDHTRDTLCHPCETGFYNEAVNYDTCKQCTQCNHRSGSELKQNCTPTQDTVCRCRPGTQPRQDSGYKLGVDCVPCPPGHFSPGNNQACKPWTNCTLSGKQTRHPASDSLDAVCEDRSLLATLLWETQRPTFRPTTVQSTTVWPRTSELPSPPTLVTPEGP
As to the kind of experiment: ELISA.

The target in assay [3] is T5, recombinant human CD137-Fc (R&D #838-4B) (human, UniProt Q07011 24-186).
T5 construct: Bought; also called Human CD137 (R&D systems); CD137 (R&D Systems); not shown: Fc part, not described
As to the kind of experiment: ELISA.

Assay [4] concerns the target extracellular part of OX40 from Macaca mulatta fused to the transmembrane and intracellular part of hCD40, on … (Macaca mulatta; human, UniProt A0A5F7ZKD5 21-541; P25942 194-277). The assay can be described thus: flow cytometry, macOX40-HEK cells; 95% confidence interval. On the procedure:
as §1

Assay [5] concerns the target T1, Human OX40 (R&D systems, #3358_OX). The assay can be described thus: ELISA, coated human OX40. On the procedure:
ELISA plates were coated with human OX40 (R&D Systems, 3388-OX), CD40 (Ancell), or CD137 (R&D Systems) at 0.1 or 0.5 μg/ml. The ELISA plates were washed with PBST and then blocked with PBST+2% BSA for 1h at room temperature and then washed again with PBST. The antibodies were added in dilution series to the ELISA plates for 1 h at room temperature and then washed with PBST. Binding was detected using goat anti human kappa light chain HRP, incubated for 1h at room temperature. SuperSignal Pico Luminescent was used as substrate and luminescence was measured using Fluostar Optima.

Assay [6] concerns the target T2, extracellular part of human OX40 fused …. The assay can be described thus: flow cytometry, CHO cells with human OX40 (extracellular part on hCD40 transmembrane and intracellular part), anti-huIgG-PE. On the procedure:
The extracellular part of human OX40 was fused to the transmembrane and intracellular part of hCD40 and cloned into pcDNA3.0. The vector was subsequently stably transfected into CHO cells. […] For the assay, the transfected cells were incubated with the test antibodies and controls for 30 min at 4° C. and then detected with a-huIgG-PE (Jackson Immunoresearch) 30 min 4° C. Cells were analyzed by flow cytometry with FACS Verse (BD Biosciences).

Assay [7] addresses T6, OX40 chimera 1549: human OX40 with mouse domains 1A and 4B and non-annotated extracellular region (aa 30-65 … (human; mouse, UniProt P47741 26-61; P47741 125-211).
T6 construct: domain: 1A;domain: 4B and non-annotated extracellular region; Limits derived as for 1544
T6 sequence: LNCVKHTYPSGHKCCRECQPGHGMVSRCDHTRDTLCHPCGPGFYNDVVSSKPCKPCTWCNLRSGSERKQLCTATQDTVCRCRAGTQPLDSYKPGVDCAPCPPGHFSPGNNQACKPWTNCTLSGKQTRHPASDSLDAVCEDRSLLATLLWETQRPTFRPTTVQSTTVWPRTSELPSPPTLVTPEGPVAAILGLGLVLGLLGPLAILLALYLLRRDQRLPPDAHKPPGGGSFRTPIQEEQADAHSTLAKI
As to the kind of experiment: flow cytometry, 293-F transfectants.

T5 sequence (Q07011 24-186 limits assumed): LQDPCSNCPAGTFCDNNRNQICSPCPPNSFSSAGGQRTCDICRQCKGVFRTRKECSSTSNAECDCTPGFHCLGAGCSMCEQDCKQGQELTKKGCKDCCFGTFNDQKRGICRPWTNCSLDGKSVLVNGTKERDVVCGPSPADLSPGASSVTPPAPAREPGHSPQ
T3 sequence (P25942 21-193 limits assumed): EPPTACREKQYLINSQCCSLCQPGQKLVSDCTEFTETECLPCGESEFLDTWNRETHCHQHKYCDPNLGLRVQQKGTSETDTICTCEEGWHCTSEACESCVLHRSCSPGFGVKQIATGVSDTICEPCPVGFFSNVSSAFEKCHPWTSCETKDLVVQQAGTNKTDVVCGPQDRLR

B1: anti-OX40 antibody 1168/1135 (antibody, V domains shown)
VH: EVQLLESGGGLVQPGGSLRLSCAASGFTFSGSSMSWVRQAPGKGLEWVSSISYYGGYTYYADSVKGRFTISRDNSKNTLYLQMNSLRAEDTAVYYCARYFPHYYFDYWGQGTLVTVSS
VL: not shown
notes: Tested as IgG
With B1, in [1], the Kd turned out to be 0.327 nM. This molecule yielded a koff in assay [1] of 0.000169 s⁻¹. For the same molecule, in assay [1], the kon was 518000 M⁻¹ s⁻¹. The EC50 in assay [2] was 0.0636 to 0.131 µg/mL; in [4], 0.0905 to 0.194 µg/mL; in assay [5] it was less than 1 nM. Further, the binding result (with CD40 (Ancell); in the assay with murine OX40; in assay [3]) was “no binding” throughout.

B2: anti-OX40 antibody 1164/1135 (antibody, V domains shown)
VH: EVQLLESGGGLVQPGGSLRLSCAASGFTFYGSSMYWVRQAPGKGLEWVSGIYSSGGYTSYADSVKGRFTISRDNSKNTLYLQMNSLRAEDTAVYYCARGVPHGYFDYWGQGTLVTVSS
VL: not shown
notes: Tested as IgG
For B2, in [1], the Kd turned out to be 0.308 nM, the koff came out at 7.73e-05 s⁻¹ and the kon worked out at 251000 M⁻¹ s⁻¹. Moreover, the binding result in the assay with CD40 (Ancell) was “no binding”. Besides, in the assay with murine OX40, the binding result is recorded as “no binding”. The binding result in assay [3] is given as “no binding”. The concentration giving a half-maximal response (EC50 (read off the curve)) in assay [6] was roughly 0.01 µg/mL. In addition, the EC50 in [5] was less than 1 nM.

B3: anti-OX40 antibody 1542/1135 (antibody, V domains shown)
VH: EVQLLESGGGLVQPGGSLRLSCAASGFTFGSSSMYWVRQAPGKGLEWVSGIGYYSYSTSYADSVKGRFTISRDNSKNTLYLQMNSLRAEDTAVYYCARGYPHHYFDYWGQGTLVTVSS
VL: not shown
notes: Tested as IgG
Consider B3, for which the Kd in assay [1] is 0.463 nM. Also, the koff in assay [1] amounted to 0.0001 s⁻¹. This molecule also yielded a kon in [1] of 216000 M⁻¹ s⁻¹. For the same molecule, the EC50 is 0.322 to 0.552 µg/mL in assay [2], 0.722 to 1.41 µg/mL in assay [4] and less than 1 nM in [5]. The binding result (in the assay with CD40 (Ancell); in the assay with murine OX40; in assay [3]) was “no binding” throughout. Besides, the “relative MFI vs isotype control” value in assay [7] was 13.

B4: anti-OX40 antibody 1524/1525 (antibody, V domains shown)
VH: EVQLLESGGGLVQPGGSLRLSCAASGFTFGSYYMGWVRQAPGKGLEWVSSIGSYYGYTYYADSVKGRFTISRDNSKNTLYLQMNSLRAEDTAVYYCARHDYGALDYWGQGTLVTVSS
VL: DIQMTQSPSSLSASVGDRVTITCRASQSISSYLNWYQQKPGKAPKLLIYAASSLQSGVPSRFSGSGSGTDFTLTISSLQPEDFATYYCQQYGPSGLFTFGQGTKLEIK
notes: Tested as IgG
With B4, the affinity in [1], expressed as Kd, was 0.811 nM. Besides, the koff in [1] was 0.00139 s⁻¹. Moreover, the on-rate (kon) in assay [1] was determined as 1.71e+06 M⁻¹ s⁻¹. The binding result (with CD40 (Ancell); with murine OX40; in [3]) was “no binding” throughout. Besides, the “relative MFI vs isotype control” value in [7] was determined as 11.2. Also, in [6], the “EC50 (read off the curve)” value was roughly 0.05 µg/mL. In addition, in assay [5], the EC50 is less than 1 nM.

B5: anti-OX40 antibody 1526/1527 (antibody, V domains shown)
VH: EVQLLESGGGLVQPGGSLRLSCAASGFTFSGYSMYWVRQAPGKGLEWVSGIGYSGYGTYYADSVKGRFTISRDNSKNTLYLQMNSLRAEDTAVYYCARYYFHDYAAYSLDYWGQGTLVTVSS
VL: DIQMTQSPSSLSASVGDRVTITCRASQSISSYLNWYQQKPGKAPKLLIYAASSLQSGVPSRFSGSGSGTDFTLTISSLQPEDFATYYCQQYGSDSLLTFGQGTKLEIK
notes: Tested as IgG
With B5, the Kd in assay [1] was found to be 0.43 nM. This molecule also had a koff in assay [1] of 0.000187 s⁻¹. The molecule further had a kon in assay [1] of 435000 M⁻¹ s⁻¹. Further, the values for the EC50 in [2], in [4] and in [5] were 0.172 to 0.429 µg/mL, 0.292 to 0.589 µg/mL and less than 1 nM, respectively. For the same molecule, the binding result (with CD40 (Ancell); with murine OX40; in assay [3]) was “no binding” in each case. Further, the “relative MFI vs isotype control” value in assay [7] amounted to 8.5.

B6: anti-OX40 antibody 1482/1483 (antibody, V domains shown)
VH: EVQLLESGGGLVQPGGSLRLSCAASGFTFSSYAMSWVRQAPGKGLEWVSYISYYSGYTYYADSVKGRFTISRDNSKNTLYLQMNSLRAEDTAVYYCARGYGYLDYWGQGTLVTVSS
VL: DIQMTQSPSSLSASVGDRVTITCRASQSISSYLNWYQQKPGKAPKLLIYAASSLQSGVPSRFSGSGSGTDFTLTISSLQPEDFATYYCQQYGSLLTFGQGTKLEIK
notes: Tested as IgG
The molecule B6 came in with a Kd in assay [1] of 0.753 nM. In addition, in [1], the koff was determined as 0.000584 s⁻¹. The same molecule showed a kon in assay [1] of 776000 M⁻¹ s⁻¹. The EC50 in assay [2] is 0.082 to 0.182 µg/mL; in assay [4], 0.157 to 0.312 µg/mL; in assay [5] it was less than 1 nM. The binding result (with CD40 (Ancell); with murine OX40; in assay [3]) was “no binding” throughout. The “relative MFI vs isotype control” value in [7] was 8.7.

Values taken from US20210238298A1 (ALLIGATOR BIOSCIENCE, published 2021).
